Laboratory results from the DeepSol protein solubility set.

Experiment: soluble on expression in E. coli; label from the status in PepcDB or PDB records

Sequence | soluble on expression in E. coli
CLKEGGDSNSEKFIVGTNATYPPFEFVDKRGEVVGFDIDLAREISNKLGKTLDVREFSFDALILNLKQHRIDAVITGMSITPSRLKEILMIPYYGEEIKHLVLVFKGENKHPLPLTQYRSVAVQTGTYQEAYLQSLSEVHIRSFDSTLEVLMEVMHGKSPVAVLEPSIAQVVLKDFPALSTATIDLPEDQWVLGYGIGVASDRPALALKIEAAVQEIRKEGVLAELEQKWGLNNLEHHHHHH | soluble
MSKEKYSFEDLIKVMEELRKKCPWDREQTHESLKKYLIEEAYEVLDAIDSKDDEKLKEELGDLLLQVVFHSQIAKERGAFDINDVIDTLVKKLIERHPHVFGCANPEDVLKNWEKKKMEKRKSIFEGIPKHLPALMRSQKLQDRTSQVGFDFQDISQVFEKIQEEINELKESLEKGDRENIKHEIGDILTAVVELARFVNVDAEEALQEANERFIRRFSYIEKKAKEEGRKLEDMSLEEMDKLWMEAKKLEEQGKLS | soluble
MTHQTHTIAESNNFIVLDKYIKAEPTGDSYQSESDLERELIQDLRNQGYEFISVKSQSAMLANVREQLQNLNGVVFNDSEWRRFTEQYLDNPSDGILDKTRKIHIDYICDFIFDDERLENIYLIDKKNLMRNKVQIIQQFEQAGSHANRYDVTILVNGLPLVQIELKKRGVAIREAFNQIHRYSKESFNSENSLFKYLQLFVISNGTDTRYFANTTKRDKNSFDFTMNWAKSDNTLIKDLKDFTATCFQKHTLLNVLVNYSVFDSSQTLLVMRPYQIAATERILWKIKSSFTAKNWSKPESGGYIWHTTGSGKTLTSFKAARLATELDFIDKVFFVVDRKDLDYQTMKEYQRFSPDSVNGSENTAGLKRNLDKDDNKIIVTTIQKLNNLMKAESDLPVYNQQVVFIFDECHRSQFGEAQKNLKKKFKRYYQFGFTGTPIFPENALGSETTASVFGRELHSYVITDAIRDEKVLKFKVDYNDVRPQFKSLETETDEKKLSAAENQQAFLHPMRIQEITQYILNNFRQKTHRTFPGSKGFNAMLAVSSVDAAKAYYATFKRLQEEAANKSATYKPLRIATIFSFAANEEQNAIGEISDETFDTSAMDSSAKEFLDAAIREYNSHFKTNFSTDSNGFQNYYRDLAQRVKNQDIDLLIVVGMFLTGFDAPTLNTLFVDKNLRYHGLMQAFSRTNRIYDATKTFGNIVTFRDLERSTIDAITLFGDKNTKNVVLEKSYTEYMEGFTDAATGEAKRGFMTVVSELEQRFPDPTSIESEKEKKDFVKLFGEYLRAENILQNYDEFATLKALQQIDLSDPVAVEKFKAEHYVDDEKFAELQTIRLPADRKIQDYRSAYNDIRDWQRREKEAEKKEKSTTDWDDVVFEVDLLKSQEINLDYILGLIFEHNRQNKGKGEMIEEVKRLIRSSLGNRAKEGLVVDFIQQTNLDDLPDKASIIDAFFTFAQREQQREAEALIKEENLNEDAAKRYIRTSLKREYATENGTELNETLPKLSPLNPQYKTKKQAVFQKIVSFIEKFKGVGGKI | soluble
MAGLFDKQADLYLDARPNYPSEWFSKLADLTDHHGLAWDAATGNGQAALAVAEHYESVVATDVSESQLKLATPHPKINYRHTPTSMTDDELVELIGGENSVDLITVAQGVHWFDLPRFYSVATRLLRKPGGIIAVWGYNDVIVSPEFDAVQYRLHATTLPFWKYPYIQHIFDSYEALPFPFENVGMGSEGEPLKLEMPKTTSFEGIIRMFKSWSAIVTAREKGVELLPESLVRELETAWGGSDLVRSVVYKAFMIAGKVRV | soluble
MDILVLRVDVPKEGFARKLGAHETVFAADDGAVGKVQQLVEVLLRHERDFDEADGCRLKNIAVVLQGILRNNAALFEAVDDLRPRQQQCHRAACLSPHFQPLCPNIAPIAEKQPFGGVFFGQHQPLSQGFSIETDGFAVITFAYQPAAFFAETHKPKIFLNTLLRRRHQMQPFIAFLRAQIFPIQPKRLVSADNVQHIFGQVAGKSFDDDIGNRRGINICRIGMPSADMNILMNAGNIGQIRAKRTQGGHIVRPQMHLPTEFAVQNTGEPPRNADVAEIVDDLAKNPTDKRRSIHRNNGNGLKRAKIVEQIHNQQNNRNKQQHSLTFQIKLLFQMMLDGVEKDEFKQKRRFAGKDDAVDQMLEFVFGRIGGENGKRRQRDEADGKPADKQVSGHCKAFKKAKRHYRPKRTPCLTDAPEMPSEALPQENAAPPNL | not soluble
MIPPSSPREDGVDGLPKEAVGAEQPPSPASTSSQESKLQKLKRSLSFKTKSLRSKSADNFFQRTNSEDMKLQAHMVAEISPSSSPLPAPGSLTSTPARAGLHPGGKAHAFHEYIFKKPTFCDVCNHMIVGTNAKHGLRCKACKMSIHHKCTDGLAPQRCMGKLPKGFRRYYSSPLLIHEQFGCIKEVMPIACGNKVDPVYETLRFGTSLAQRTKKGSSGSGSDSPHRTSTSDLVEVPEEANGPGGGYDLRKRSNSVFTYPENGTDDFRDPAKNINHQGSLSKDPLQMNTYVALYKFVPQENEDLEMRPGDIITLLEDSNEDWWKGKIQDRIGFFPANFVQRLQQNEKIFRCVRTFIGCKEQGQITLKENQICVSSEEEQDGFIRVLSGKKKGLIPLDVLENI | soluble
MANVVAEGAYPYCRLTDQPLSVDEVLAAVSGPEQGGIVIFVGNVRDHNAGHDVTRLFYEAYPPMVIRTLMSIIGRCEDKAEGVRVAVAHRTGELQIGDAAVVIGASAPHRAEAFDAARMCIELLKQEVPIWKKEFSSTGAEWVGDRP | soluble
MSSQIRGSKQHEDVDPVTIKKIEEAYVMLNGPDGAKCSSLLKKNLTKDVIEKLKTKSTKLGANLYDCIRSGVYCLDALVGVYAPDAEAYTLFAPLFDKIIEDYHGLGPDQKQPPVDLGEGKTKEFPPLDPKGKYIKSTRIRCGRSLNGYQFNPCLTEDNYLEMEEKVKKAFSEFSDEELKGTYYPLDGMSKDTQNQLIADHFLFKEGDRHLQYANACNFWPKGRGIFHNNKKTFLIWVNEEDHLRIISMQEGSDVGAVLERLIKGVRGIEKQVQFSRDDRLGWLTFCPTNLGSTVRASVHIALPKLSAREDFKQICDKLDLQLRGIHGEHSESEGGVYDISNRARLGLSEYEAVKKMYDGVKNLIEMEEKET | not soluble
MDKEVTNIVLKRHDSIVKGAQDDREYRGLELTNGIRVLLVSDPTTDKSAAALDVKVGHLMDPWELPGLAHFCEHMLFLGTAKYPTENEYSKFLTDNAGHRNAVTASDHTNYHFDVKPDQLRGALDRFVQFFLSPQFTESATEREVCAVDSEHSNNLNNDLWRLSQVDRSLSKPGHDYAKFGTGNKKTLLEEARKKGVEPRDALLQFYKKWYSSNIMTCCIIGKESLDVLQSHLKTLEFDTIENKKVERKVWNENPYGPEQLGKRIDRKFFAHLIRHKGPGSLLVELKRLGWVNSLKSDSNTIAAGFGILNVTMDLSTGGLENVDEIIQLMLNYIGMLKSFGPQQWIHDELADLSDVKFRFKDKEQPMKMAINIAASLQYIPIEHILSSRYLLTKYEPERIKELLSTLTPSNMLVRVVSQKFKEQEGNTNEPVYGTEMKVTDISPEKMKKYENALKTSHHALHLPEKNEYIATNFGQKPRESVKNEHPKLISDDGWSRVWFKQDDEYNMPKQETKFALTTPIVSQNPRISLISSLWLWCFCDILSEETYNAALAGLGCQFELSPFGVQKQSTDGREAERHASLTLHVYGYDEKQPLFVKHLTSCMINFKIDRTRFEVLFESLKRTLTNHAFSQPYLLTQHYNQLLIVDKVWSKEQLLAVCDSVTLENVQGFAREMLQAFHMELFVHGNSTEKEAIQLSKELMDILKSAAPNSRPLYRNEHNPRREFQLNNGDEYIYRHLQKTHDAGCVEVTYQIGVQNKYDNAVVGLIDQLIKEPVFDTLRTNEALGYIVWTGCRFNCGAVALNIFVQGPKSVDYVLERIEVFLESVRKEIIEMPQDEFEKKVAGMIARLEEKPKTLSNRFKRFWYQIECRQYDFARREKEVKVLKSIGKDDVIALFDKKIRKNAVERRKLVVLVHGKIDDQETLNRIIKKNVESGKKEKEILNLDQLRQSLPVYDLPNAAIDLKPIGVDPLEQKESATVQ | not soluble
MGSDKIHHHHHHMKKAIGILCYPSVGGSGVVATELGMKLADRGHDVHFITSSIPFRLTEYRPNITVHLVEVNQYSVFKYPPYDITLASKVAEVIDLFDLDIIHAHYAVPHAVCAELGRNMAKKKGVGVVTTLHGTDITVIGQDLEMQPAIRYGIESSDAVTAVSESLALETNITLNGQYAIEVIPNSIDESMYYPMRDERLKRHYGIEPDEIVVIHISNFRPVKRIDDTIAAFAIASKDRAMRLLLVGDGPEMGQTRRRAKELGIYDKIIFAGKQEHVAQLLAISDIHLLLSEKEAFGLVVLEAMAVGVPSVVSSAGGLPEVIQDGKTGFIVPTYDVKTAADRIGKLADDAALREELAEEGIRDTRRRFDSNQVVRAYELLYERVCAQYENA | not soluble
MRYIMASPINSGIMMANLCPSTFLDKNRNVAAELDIKNNEKKYSPGSNFAKWMLQEIKRLILNIMSGSRSINTDILDYFHPMPGTENNGNRTWVAATGEDEYIEIKQTGDKSFNITLVGRDKPSRKEIPYSGVAVATIIKSLSEKTSALETHSADTVLRKKLVNSIVMKNTDFNYEIPAGILSNIYDLLKLRIKKDEGYVPVQESFKRTDVFFDSMIMDAH | not soluble
MDDYMVLRMIGEGSFGRALLVQHESSNQMFAMKEIRLPKSFSNTQNSRKEAVLLAKMKHPNIVAFKESFEAEGHLYIVMEYCDGGDLMQKIKQQKGKLFPEDMILNWFTQMCLGVNHIHKKRVLHRDIKSKNIFLTQNGKVKLGDFGSARLLSNPMAFACTYVGTPYYVPPEIWENLPYNNKSDIWSLGCILYELCTLKHPFQANSWKNLILKVCQGCISPLPSHYSYELQFLVKQMFKRNPSHRPSATTLLSRGIVARLVQKCLPPEIIMEYGEEVLEEIKNSKHNTPRKKTNPSRIRIALGNEASTVQEEEQDRKGSHTDLESINENLVESALRRVNREEKGNKSVHLRKASSPNLHRRQWEKNVPNTALTALENASILTSSLTAEDDRGGSVIKYSKNTTRKQWLKETPDTLLNILKNADLSLAFQTYTIYRPGSEGFLKGPLSEETEASDSVDGGHDSVILDPERLEPGLDEEDTDFEEEDDNPDWVSELKKRAGWQGLCDR | soluble
TDTDEVINLRVVETTDIHTNLMDYDYYKDKPTQKIGLARTATLVKEARAEVTNSVLVDNGDLLQGSPMGDYMADKGIEAGEVHPAYKAMNQLDYDAGNIGNHEFNYGLEFLAESINDADFPYISANVYDAKTKEHYFKPYIIKTHKLKDTAGVEHEIKVGYIGFVPPQIMVWDKKNLEGKVFARDIKETAEELVPQMKAEGADVIVAIPHSGVSTNPYKQGEENSTYYLSEVDGIDAIAFGHSHAVFPGKGFDNLQGIDNENGTINGVAAVMPGRWGSHVGVMDLTLEQKDGKWSVVKGQSEARPIFDKTNQKSLADADKGIVQALEADHKGTRDFVNQ | not soluble
MGSDKIHHHHHHMKVFDVHKFDMKKEQDFLQVQFNLKNRINLSPTIHPDSINTGAGVDLAYWEQDGEPYGVCCIIVIDADTKEVIEKVHSMGRISVPYVSGFLAFRELPLIIEAAKKLETEPDVFLFDGNGYLHYNHMGVATHAAFFLGKPTIGIAKTYLKIKGCDFVTPEIEVGAYTDIIIDGEVYGRALRTRRDVKPIFLSCGNYIDLDSSYQITMSLINQESRLPIPVRLADLETHVLRTFYQKNHV | not soluble
TVSQLRSRITRFALAGRGMRETVTWSFISEKQALAFGGGQAQLKLVNPISADMSVMRPSLLPGLLVAAQRNADRGFPDFALFEVSNIYEDDTPDKQHRVAGGIRRGTEQFGGAGRFWNGNARAVDVFDAKADALAVLEACGLESGKVQIEVGAPDWYHPGRSGVIKLGSKIILGFFGVFHPATLEKLDISGPLCGFEIFL | not soluble
HMNFKMEHQNKRSPLHAAAEAGHVDICHMLVQAGANIDTCSEDQRTPLMEAAENNHLEAVKYLIKAGALVDPKDAEGSTCLHLAAKKGHYEVVQYLLSNGQMDVNCQDDGGWTPMIWATEYKHVDLVKLLLSKGSDINIRDNEENICLHWAAFSGCVDIAEILLAAKCDLHAVNIHGDSPLHIAARENRYDCVVLFLSRDSDVTLKNKEGETPLQCASLNSQVWSALQMSKALQDSA | soluble
